Measured values reported in US20180155451A1 (published 2018).

T1: FcγRIIa R (human, UniProt P12318 34-217)
T1 construct: extracellular domain; also called FcgRIIa R type; 2aR
T1 sequence (looked up): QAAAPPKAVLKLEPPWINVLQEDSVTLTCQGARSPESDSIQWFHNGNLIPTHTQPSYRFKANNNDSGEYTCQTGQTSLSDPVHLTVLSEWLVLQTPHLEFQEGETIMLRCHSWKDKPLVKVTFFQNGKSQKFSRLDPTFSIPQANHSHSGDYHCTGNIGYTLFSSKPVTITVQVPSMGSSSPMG

T2: FcγRIIb (human, UniProt P31994 43-217)
T2 construct: extracellular domain; also called FcgRIIb; 2b
T2 sequence (looked up): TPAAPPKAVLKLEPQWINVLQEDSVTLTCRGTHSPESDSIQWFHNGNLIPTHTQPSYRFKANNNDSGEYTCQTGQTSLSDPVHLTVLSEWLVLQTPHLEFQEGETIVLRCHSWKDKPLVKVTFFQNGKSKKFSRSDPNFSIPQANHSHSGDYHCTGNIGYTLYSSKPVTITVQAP

B1: GpH7-A5/GpH7-B3 variant D265_11K/GpL16-k0 (antibody, human IgG1, kappa)
heavy 1: not shown
heavy 2: not shown
light: DIVMTQSPLSLPVTPGEPASISCQASESLVHSNRNTYLHWYLQKPGQSPQLLIYKVSNRFSGVPDRFSGSGSGTDFTLKISRVEAEDVGVYYCSQNTHVPPTFGQGTKVEIERTVAAPSVFIFPPSDEQLKSGTASVVCLLNNFYPREAKVQWKVDNALQSGNSQESVTEQDSKDSTYSLSSTLTLSKADYEKHKVYACEVTHQGLSSPVTKSFNRGEC
notes: heterodimerized antibody, mutation in the GpH7-B3 chain only; also called He Ab
B2: GpH7-A5/GpH7-B3 variant Q295_11K/GpL16-k0 (antibody, human IgG1, kappa)
heavy 1: not shown
heavy 2: not shown
light: B1 light
notes: as for B1
B3: GpH7-A5/GpH7-B3 variant Q295_03V/GpL16-k0 (antibody, human IgG1, kappa)
heavy 1: not shown
heavy 2: not shown
light: B1 light
notes: as for B1
B4: GpH7-A5/GpH7-B3 variant E269_02A/GpL16-k0 (antibody, human IgG1, kappa)
heavy 1: not shown
heavy 2: not shown
light: B1 light
notes: as for B1
B5: GpH7-A5/GpH7-B3 variant Q295_01G/GpL16-k0 (antibody, human IgG1, kappa)
heavy 1: not shown
heavy 2: not shown
light: B1 light
notes: as for B1
B6: GpH7-A5/GpH7-B3 variant H268_11K/GpL16-k0 (antibody, human IgG1, kappa)
heavy 1: not shown
heavy 2: not shown
light: B1 light
notes: as for B1
B7: GpH7-A5/GpH7-B3 variant E269_08L/GpL16-k0 (antibody, human IgG1, kappa)
heavy 1: not shown
heavy 2: not shown
light: B1 light
notes: as for B1
B8: GpH7-A5/GpH7-B3 variant D265_18N/GpL16-k0 (antibody, human IgG1, kappa)
heavy 1: not shown
heavy 2: not shown
light: B1 light
notes: as for B1
B9: GpH7-A5/GpH7-B3 variant D265_16H/GpL16-k0 (antibody, human IgG1, kappa)
heavy 1: not shown
heavy 2: not shown
light: B1 light
notes: as for B1
B10: GpH7-A5/GpH7-B3 variant P271_20W/GpL16-k0 (antibody, human IgG1, kappa)
heavy 1: not shown
heavy 2: not shown
light: B1 light
notes: as for B1
B11: GpH7-A5/GpH7-B3 variant H268_08L/GpL16-k0 (antibody, human IgG1, kappa)
heavy 1: not shown
heavy 2: not shown
light: B1 light
notes: as for B1
B12: GpH7-A5/GpH7-B3 variant D265_19Q/GpL16-k0 (antibody, human IgG1, kappa)
heavy 1: not shown
heavy 2: not shown
light: B1 light
notes: as for B1
B13: GpH7-A5/GpH7-B3 variant D265_10E/GpL16-k0 (antibody, human IgG1, kappa)
heavy 1: not shown
heavy 2: not shown
light: B1 light
notes: as for B1
B14: GpH7-A5/GpH7-B3 variant E269_19Q/GpL16-k0 (antibody, human IgG1, kappa)
heavy 1: not shown
heavy 2: not shown
light: B1 light
notes: as for B1
B15: GpH7-A5/GpH7-B3 variant E269_06M/GpL16-k0 (antibody, human IgG1, kappa)
heavy 1: not shown
heavy 2: not shown
light: B1 light
notes: as for B1
B16: GpH7-A5/GpH7-B3 variant H268_06M/GpL16-k0 (antibody, human IgG1, kappa)
heavy 1: not shown
heavy 2: not shown
light: B1 light
notes: as for B1
B17: GpH7-A5/GpH7-B3 variant P271_04F/GpL16-k0 (antibody, human IgG1, kappa)
heavy 1: not shown
heavy 2: not shown
light: B1 light
notes: as for B1
B18: GpH7-A5/GpH7-B3 variant D265_13S/GpL16-k0 (antibody, human IgG1, kappa)
heavy 1: not shown
heavy 2: not shown
light: B1 light
notes: as for B1

Target: T1, FcγRIIa R
Assay: SPR; He/Con_2aR divided by He/Con_2b (FcγRIIb as reference)
Procedure: (§1) The heterodimerized antibodies He Abs in which one of the H chains was introduced with an alteration were assayed for their binding activities to each activating FcγR and inhibitory FcγR according to the method described in Example 4. […] The activating FcγRs in FIGS. 26, 27, 28, and 29 are FcγRIa, FcγRIIa (R), FcγRIIa (H), and FcγRIIIa, respectively.
(§2) Analysis of interaction between objective antibody and the FcγR was carried out using Biacore T100 (GE Healthcare). HBS-EP+ (GE Healthcare) was used as the running buffer, and the measurement temperature was set to 25° C. Chips produced by immobilizing the antigen peptide by the amine coupling method to a Series S Sencor Chip CM5 (GE Healthcare), or alternatively, chips produced by allowing preliminarily biotinylated antigen peptides to interact with and immobilize onto a Series S Sensor Chip SA (certified) (GE Healthcare) were used. Antibodies of interest were captured onto an antigen peptide-immobilized chip, and allowed to interact to each FcγR diluted with running buffer. To regenerate and repeatedly use the chip, the antibodies captured on the chip were washed off by reacting 10 mM glycine-HCl, pH 1.5.

Row | IIaR/IIb (He_2aR/2b) | Binder
1 | 2.26 ratio | B1
2 | 1.26 ratio | B2
3 | 1.2 ratio | B3
4 | 1.31 ratio | B4
5 | 1.32 ratio | B5
6 | 1.21 ratio | B6
7 | 1.33 ratio | B7
8 | 2.02 ratio | B8
9 | 1.51 ratio | B9
10 | 1.33 ratio | B10
11 | 1.25 ratio | B11
12 | 1.64 ratio | B12
13 | 1.52 ratio | B13
14 | 1.31 ratio | B14
15 | 1.32 ratio | B15
16 | 1.23 ratio | B16
17 | 1.28 ratio | B17
18 | 1.81 ratio | B18

Target: T1, FcγRIIa R
Assay: SPR (Biacore), antibody captured, FcγR as analyte; relative binding
Procedure: as §1, §2

Row | He/Con_2aR (IIaR binding) | Binder
19 | 33.7 % of GpH7-A5/GpH7-B3/GpL16-k0 (=100) | B1
20 | 88.9 % of GpH7-A5/GpH7-B3/GpL16-k0 (=100) | B2
21 | 91.2 % of GpH7-A5/GpH7-B3/GpL16-k0 (=100) | B3
22 | 65.3 % of GpH7-A5/GpH7-B3/GpL16-k0 (=100) | B4
23 | 60.9 % of GpH7-A5/GpH7-B3/GpL16-k0 (=100) | B5
24 | 100 % of GpH7-A5/GpH7-B3/GpL16-k0 (=100) | B6
25 | 57.2 % of GpH7-A5/GpH7-B3/GpL16-k0 (=100) | B7
26 | 12.4 % of GpH7-A5/GpH7-B3/GpL16-k0 (=100) | B8
27 | 58 % of GpH7-A5/GpH7-B3/GpL16-k0 (=100) | B9
28 | 77.3 % of GpH7-A5/GpH7-B3/GpL16-k0 (=100) | B10
29 | 85 % of GpH7-A5/GpH7-B3/GpL16-k0 (=100) | B11
30 | 54.8 % of GpH7-A5/GpH7-B3/GpL16-k0 (=100) | B12
31 | 58.2 % of GpH7-A5/GpH7-B3/GpL16-k0 (=100) | B13
32 | 57.8 % of GpH7-A5/GpH7-B3/GpL16-k0 (=100) | B14
33 | 61.7 % of GpH7-A5/GpH7-B3/GpL16-k0 (=100) | B15
34 | 81 % of GpH7-A5/GpH7-B3/GpL16-k0 (=100) | B16
35 | 75.9 % of GpH7-A5/GpH7-B3/GpL16-k0 (=100) | B17
36 | 20.5 % of GpH7-A5/GpH7-B3/GpL16-k0 (=100) | B18

Target: T2, FcγRIIb
Assay: as above
Procedure: as §1, §2

Row | He/Con_2b (IIb binding) | Binder
37 | 14.9 % of GpH7-A5/GpH7-B3/GpL16-k0 (=100) | B1
38 | 70.4 % of GpH7-A5/GpH7-B3/GpL16-k0 (=100) | B2
39 | 75.7 % of GpH7-A5/GpH7-B3/GpL16-k0 (=100) | B3
40 | 49.9 % of GpH7-A5/GpH7-B3/GpL16-k0 (=100) | B4
41 | 46 % of GpH7-A5/GpH7-B3/GpL16-k0 (=100) | B5
42 | 83 % of GpH7-A5/GpH7-B3/GpL16-k0 (=100) | B6
43 | 42.9 % of GpH7-A5/GpH7-B3/GpL16-k0 (=100) | B7
44 | 6.1 % of GpH7-A5/GpH7-B3/GpL16-k0 (=100) | B8
45 | 38.3 % of GpH7-A5/GpH7-B3/GpL16-k0 (=100) | B9
46 | 58.1 % of GpH7-A5/GpH7-B3/GpL16-k0 (=100) | B10
47 | 67.8 % of GpH7-A5/GpH7-B3/GpL16-k0 (=100) | B11
48 | 33.4 % of GpH7-A5/GpH7-B3/GpL16-k0 (=100) | B12
49 | 38.2 % of GpH7-A5/GpH7-B3/GpL16-k0 (=100) | B13
50 | 44.3 % of GpH7-A5/GpH7-B3/GpL16-k0 (=100) | B14
51 | 46.7 % of GpH7-A5/GpH7-B3/GpL16-k0 (=100) | B15
52 | 65.7 % of GpH7-A5/GpH7-B3/GpL16-k0 (=100) | B16
53 | 59.5 % of GpH7-A5/GpH7-B3/GpL16-k0 (=100) | B17
54 | 11.3 % of GpH7-A5/GpH7-B3/GpL16-k0 (=100) | B18
